Reference: the supplement of paper PMC10567573
± gives the standard deviation.

Experiment: protein stability index of a GFP-peptide fusion (GPS, HEK-293T) (PSI 1-6); higher = more stable
Conditions: c terminus: a fixed tail appended
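Note: 24-mer peptide tiles fused after GFP, lentivirally expressed, FACS-sorted into six equal bins by GFP/DsRed ratio, decoded by Illumina sequencing, PSI is the read-weighted mean bin number.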

Sequence	protein stability index (treatment: DMSO)	protein stability index (treatment: MLN4924 1 uM, 8 h)
FAAPSPATTASPAKVDSSGVIDLF [SNAP91]	2.93 ± 0.38	3.25 ± 0.52
FADGVLSGEELHELFHTIDTHNTN [NECAB1]	3.12 ± 0.38	3.68 ± 0.21
FAQALGCVLYACFILGRLCVPVFA [SOAT2]	3.03 ± 0.6	2.64 ± 0.55
FARVKKGADGVMRTMAPEKLLKSM [SNAP91]	2.7 ± 0.18	3.05 ± 0.42
FASDGDSGTCSPLRHSFQKQQREK [ADD1]	3.98 ± 0.41	4.17 ± 0.39
FATQTEELNKQVVSSSEQLQSYQA [KRT33B]	4.75 ± 0.24	4.64 ± 0.17
FCGATIAGLSLLSPSVMRLVHTQE [ALKBH7]	3.06 ± 0.44	2.71 ± 0.96
FDCPSELQHTQELFPQWHLPIKIA [STEAP1]	2.78 ± 0.33	2.79 ± 0.38
FDDFVTNLIEKSASLDNGGCALTT [SOAT1]	3.66 ± 0.27	3.62 ± 0.16
FDMSRYSSSGYSSAEINQDLNIQL [FAM219A]	3.06 ± 0.27	3.12 ± 0.18
FENMSNDDAVRVLREIVHKPGPIT [DVL3]	3.65 ± 0.15	3.7 ± 0.15
FFINEAMELKVGDFGLAARLEPLE [PLK2]	2.61 ± 0.14	2.68 ± 0.18
FFTLDLEHIADALRAIDFGTDEEE [TRIM63]	3.9 ± 0.63	4.27 ± 0.26
FGASAAGGLSPVTNLTVTMDQLQG [CDC25A]	3.65 ± 0.27	3.7 ± 0.46
FGYLGDRYNRKYLMCGGIAFWSLV [SPNS1]	3.1 ± 0.51	2.75 ± 0.71
FHAYYYCFITLTTIGFGDYVALQT [KCNK9]	3.27 ± 0.29	3.34 ± 0.36
FIIGELHPDDRPKLNKPPETLITT [CYB5A]	2.73 ± 0.35	2.91 ± 0.4
FIYDCDPFTRRYYKEKFGITDLPR [EFHC1]	2.35 ± 0.37	2.15 ± 0.26
FKKHDADKVGLITLSDWAAAVESV [PPEF2]	–	2.64 ± 0.46
FNGELPNGRHKIPESQFPEFSTSL [SRPK2]	3.51 ± 0.22	3.72 ± 0.32
FNYRYFEVEEADGNKQWWFGGGCD [CPOX]	2.48 ± 0.23	2.58 ± 0.28
FPEFCSSPSPPVEVKIEEPVSMEM [INTS3]	4.65 ± 0.32	4.82 ± 0.27
FPKINHGILYDEEKYKPFSQVPTG [CFHR2]	2.4 ± 0.28	3.36 ± 0.34

Sequence	protein stability index (treatment: DMSO)	protein stability index (treatment: MLN4924 1 uM, 8 h)
FQQNHLFWLQNSSPSSDRVSAIIW [PHTF1]	2.26 ± 0.6	2.43 ± 0.49
FQVNKLMKKIKKLENDTISKQLTL [CCDC6]	2.26 ± 0.12	2.38 ± 0.33
FRFAPNHTKELEDKVIELHKSHRG [EPB41L3]	2.88 ± 0.58	3.2 ± 0.68
FRLVEKSCPEGDASECPQATNAKD [PPEF2]	5.11 ± 0.21	5.41 ± 0.28
FSDDEEDLNSKGKKREFRFHPIKE [INTS3]	3.48 ± 0.68	4.04 ± 0.71
FSLEQQLDDEDDDEEDCPNPEEYN [SRPK2]	5.61 ± 0.27	5.71 ± 0.13
FTRPNEKGEYEVAEGIGSTVFRAI [BTBD10]	3.18 ± 0.42	3.46 ± 0.38
FVAFAAKLWSFFIYLLRRQIRTVI [CTDNEP1]	3.29 ± 0.16	3.3 ± 0.31
FVELQGFLAAEQDIREEIRKVVQS [TSN]	2.21 ± 0.41	2.48 ± 0.82
FVVGNCLQIASDSHQYDRIYCGAG [PCMTD1]	2.45 ± 0.38	2.62 ± 1
FYPVMLILFLVIGGMLNFMMHDQR [SOAT2]	3.34 ± 0.36	2.95 ± 0.11
GADYPVDGLPDLGHAQDLMDGLPP [CTNNB1]	4.95 ± 0.24	5.17 ± 0.068
GASSLPTTMNYPLWSQSYEDSSNQ [MAGEA3]	4.42 ± 0.11	4.57 ± 0.15
GCLLDDGLEGLFEDIDTSMYDNEL [SERTAD1]	4.28 ± 0.48	4.32 ± 0.42
GCRLPSISSTTCGRQLEKVPEKRD [SPATS1]	3.98 ± 0.36	3.84 ± 0.22
GDAFGSSASEPQPASQAASSSSAS [SNAP91]	5.48 ± 0.16	5.32 ± 0.31
GDESSLLLNAASTVARPVFTEYQA [RHOBTB3]	3.57 ± 0.29	3.52 ± 0.29
GDKSESPDEANVGKHPKDKTEDEN [TOR1AIP2]	5.55 ± 0.2	5.44 ± 0.46
GDLFNGRYHVIRKLGWGHFSTVWL [SRPK2]	2.19 ± 0.07	2.17 ± 0.81
GDLSGGQVLKKIAQKALDLPSSGE [HMOX1]	4.77 ± 0.37	4.8 ± 0.13
GDNPYMYPEQSKGFHKAGSMLPPV [SPATS1]	3.37 ± 0.16	3.35 ± 0.27
GDRLQFNQLSQAELDELASKAPVL [EFHC1]	4.25 ± 0.42	4.72 ± 0.36
GEQVGRGPGFHAGTSALWRHLRSA [ZBED3]	3.35 ± 0.13	3.27 ± 0.27

Sequence	protein stability index (treatment: DMSO)	protein stability index (treatment: MLN4924 1 uM, 8 h)
GFSPSYEFFAVTRFLVGMMNGGMS [SLC22A15]	2.54 ± 1.2	2.28 ± 0.4
GGAICGGPDHRLRLWRLFQTLDVN [SLC25A25]	2.33 ± 0.27	2.48 ± 0.42
GGANDRWVRSVSFSHDGLHVASLA [WSB1]	3.08 ± 0.3	3.16 ± 0.42
GGDLEEQQHAEGSPEPGTPAAPTP [DNAAF3]	5.61 ± 0.26	5.54 ± 0.31
GGGLLKYSNLLVRDFRPTDQEEIK [TENT5C]	3.79 ± 0.32	3.75 ± 0.6
GGRLENQKPRGLEGGVLRGSKLEK [ZSWIM9]	4.91 ± 0.68	4.9 ± 0.65
GGVGGSSRARSASSPRGMVRVCDL [ANKRD17]	3.97 ± 0.28	3.97 ± 0.36
GHRYPCFFNTLHVGGTIRTCQKFL [POP5]	2.23 ± 0.48	2.03 ± 0.21
GHSQPDGAYSSASSFSRPLGYPYV [DLX1]	3.35 ± 0.14	3.17 ± 0.29
GIIVKDARLNGSVASYILASHNGI [TENT5D]	2.66 ± 0.045	2.189 ± 0.003
GKAYRFLFGFSAVSIMYLVLVLAV [JAGN1]	2.22 ± 0.1	2.12 ± 0.35
GKGWKATRLFHDSAVTSVRILQDE [DCAF4]	3.39 ± 0.21	3.67 ± 0.34
GKKVSNQRFEVIEFDDGSGSVLRI [PTPRD]	2.38 ± 0.74	2.5 ± 0.26
GKMVEEVDGRATQKLIVNLKPEKS [PTPRD]	4.69 ± 0.13	4.66 ± 0.29
GKVIVWDSFTTNKEHAVTMPCTWV [GNB5]	2.55 ± 0.37	2.27 ± 0.36
GLPAQQVGPWLGQLQELLHHCDDH [RSAD1]	3.6 ± 0.34	3.61 ± 0.29
GLSHSHDLSMDGLFGTIAYLPPER [RIPK4]	3.28 ± 0.32	3.42 ± 0.25
GLSTEAEQPFIPVEVLVDLFLKEG [PRAME]	3.05 ± 0.11	3.3 ± 0.33
GLWSRISHLVLPVQPVSSIEEQGC [TOR1AIP2]	2.44 ± 0.26	2.64 ± 0.38
GMDLNLEAEALAGTGLVLDEQLNE [HDAC6]	5.4 ± 0.44	5.33 ± 0.24
GMRYAFIGPLETMHLNAEGMLSYC [CRYL1]	2.56 ± 0.62	2.72 ± 0.74
GNKCDLEDERVVGKEQGQNLARQW [RAP1B]	4.7 ± 0.12	4.73 ± 0.14
GNYMEAKSVLIPVYGVSKETFLSF [RHOBTB3]	2.69 ± 0.53	2.31 ± 0.34

Sequence	protein stability index (treatment: DMSO)	protein stability index (treatment: MLN4924 1 uM, 8 h)
GPAGHSKGELAPELGEEPQPRDEE [POLD4]	5.41 ± 0.23	5.43 ± 0.15
GPALPNGPLLGTNGATDDSKTNLI [ELAVL3]	4.99 ± 0.17	4.93 ± 0.33
GPFGGFFASGFKRAFKIKDFANTI [CDS1]	2.38 ± 0.31	2.44 ± 1
GPGAHILRRKSPASGQGPMCNVKA [ADAMTS4]	4.05 ± 0.34	3.76 ± 0.36
GPGDSQGRKRRQTSMTDFYHSKRR [CDKN1A]	3.62 ± 0.42	4.78 ± 0.19
GPKESLPVIAAPSMWTRPQIKDFK [ACBD3]	3.8 ± 0.29	3.79 ± 0.16
GPPPAQGSPGDGGLQDQVGAWGLP [EMID1]	5.02 ± 0.12	5.03 ± 0.4
GPSHPDTSYYIRYRGAVYADSGNF [FEM1C]	2.11 ± 0.45	2.54 ± 0.35
GPVRPAIPPPLSSVYAWGGGLGTP [NEK8]	3.18 ± 0.2	3.18 ± 0.27
GQAEEELIKAKSQARLEEQQRLAH [LRRC45]	5.13 ± 0.26	4.91 ± 0.38
GQDTFCQGKADGLYPNPRERSSFY [CHIT1]	3.71 ± 0.28	3.57 ± 0.35
GRDSEGPAEGEGRLGRCMRRLRDM [KCNG1]	4.99 ± 0.15	4.76 ± 0.15
GRFKLSIPHTHLLATLDPLALDRE [WDR88]	2.76 ± 0.24	2.76 ± 0.34
GRHHSQSTEVQAHPYSTTFQESAS [TEKT4]	4.31 ± 0.2	4.46 ± 0.3
GRIIAVFKPKNEEPYGHLNPKWTK [PI4K2A]	2.09 ± 0.24	2.2 ± 0.44
GRYVKENCKPLKSYMLQDSLEHVQ [CLK3]	3.1 ± 0.23	3.08 ± 0.48
GSWGSFQLPGLLNFGEFKCSDSDK [CLCN6]	3.99 ± 0.29	4.17 ± 0.57
GTILNYLRDGAVPLPESRREIEEL [KCTD10]	3.98 ± 0.19	4.15 ± 0.073
GVSKVGLRKIIDFIYTAKLSLNMD [KLHL13]	2.81 ± 0.75	2.83 ± 0.63
GWETRGDRKARKPLVEKKRRARIN [HES6]	4.31 ± 0.36	4.54 ± 0.12
